Source: the supplement of paper PMC10126150
± gives the standard deviation of the averaged measurements.

System: ATP
Assay: switch fluorescence ratio, 500 uM ATP over buffer (Cy3 cluster intensity, sum of 5 cycles each) (fold (ratio)); higher = stronger signal-on switching upon ATP binding; sequences stand for … in TCGTCGGCAGCGTCAGATGTGTATAAGAGACAGTTTTTTTTTTTTTTTTTTTTTTTTT…TC
Settings: aptamer strand: ATP DNA aptamer (quencher-CACCTGGGGGAGTATTGCGGAGGAAGG + anchor), 100 nM annealed; ATP concentration: 500 uM
Outline: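 Exposure to 500 uM ATP lasted 15 min at 22 °C before imaging, and a selection-buffer image was taken beforehand, for Cy3-labelled switching-strand clusters on a modified Illumina MiSeq flow-cell annealed to 100 nM quencher-labelled ATP aptamer. Five buffer/ATP cycles were run with NaOH stripping and re-annealing between them. The fluorescence ratio per cluster is summed target-cycle over summed buffer-cycle Cy3 intensity, averaged per switch-domain sequence. Clusters outside 100-1000 RFU were excluded.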

Row | Sequence | switch fluorescence ratio
1 | GAAATTCTAT | 0.985 ± 0.033
2 | GAAATTGATG | 0.983 ± 0.017
3 | GAAATTTGG | 1.01 ± 0.061
4 | GAAATTTTTT | 1 ± 0.034
5 | GAACAAAGGG | 0.988 ± 0.017
6 | GAACAATGGG | 0.977 ± 0.03
7 | GAACACGGTA | 1.204 ± 0.0023
8 | GAACATCGGC | 1.036 ± 0.0022
9 | GAACCGGGTT | 0.9987 ± 0.0079
10 | GAACCGTAAA | 1.128 ± 0.0073
11 | GAACCTCGTG | 1.03 ± 0.035
12 | GAACGATGTT | 0.9787 ± 0.0032
13 | GAACGCCGGC | 0.939 ± 0.034
14 | GAACGGTATG | 1.02 ± 0.051
15 | GAACGGTGGG | 0.976 ± 0.019
16 | GAACGTCTGC | 1.08 ± 0.011
17 | GAACGTGGGT | 0.987 ± 0.052
18 | GAACGTTTGG | 1.04 ± 0.074
19 | GAACTAGGGC | 1.02 ± 0.1
20 | GAACTCGGCT | 0.959 ± 0.12
21 | GAACTCTTGT | 1.05 ± 0.096
22 | GAACTGCGGA | 1.01 ± 0.019

Row | Sequence | switch fluorescence ratio
23 | GAAGAAAACA | 0.955 ± 0.089
24 | GAAGAACGGG | 1.006 ± 0.0036
25 | GAAGATAGGG | 0.998 ± 0.011
26 | GAAGATGAAA | 0.984 ± 0.017
27 | GAAGATTTGG | 0.981 ± 0.04
28 | GAAGCAACCG | 1.384 ± 0.01
29 | GAAGCATTTT | 1.07 ± 0.045
30 | GAAGCGACTC | 2.42 ± 0.03
31 | GAAGCGGTGG | 0.954 ± 0.09
32 | GAAGCTTATA | 1.251 ± 0.0019
33 | GAAGGAAGAG | 1.03 ± 0.025
34 | GAAGGAAGTT | 1.01 ± 0.041
35 | GAAGGACGGG | 1 ± 0.025
36 | GAAGGAGGGC | 0.995 ± 0.085
37 | GAAGGCACGG | 1.04 ± 0.047
38 | GAAGGCACTA | 1.03 ± 0.045
39 | GAAGGCATGG | 1.03 ± 0.015
40 | GAAGGCCATG | 1.016 ± 0.0075
41 | GAAGGCCTAG | 0.9763 ± 0.0042
42 | GAAGGCCTTG | 1.01 ± 0.025
43 | GAAGGCTCTG | 0.9922 ± 0.0071
44 | GAAGGGAGTG | 0.986 ± 0.084

Row | Sequence | switch fluorescence ratio
45 | GAAGGGATGG | 1.08 ± 0.15
46 | GAAGGGATTG | 1.02 ± 0.041
47 | GAAGGGCAAG | 1.02 ± 0.038
48 | GAAGGGCTGG | 0.972 ± 0.022
49 | GAAGGGGAAT | 1.003 ± 0.0052
50 | GAAGGGGTGA | 1.03 ± 0.053
51 | GAAGGGTCTG | 0.969 ± 0.012
52 | GAAGGTGAGG | 1.01 ± 0.019
53 | GAAGGTGCGA | 1.15 ± 0.052
54 | GAAGGTGTTG | 1.036 ± 0.0084
55 | GAAGGTTATA | 1 ± 0.047
56 | GAAGGTTCAT | 0.961 ± 0.022
57 | GAAGGTTGAG | 1.025 ± 0.009
58 | GAAGGTTTGG | 0.981 ± 0.03
59 | GAAGTAAAAA | 1.01 ± 0.026
60 | GAAGTAAGGA | 1.01 ± 0.074
61 | GAAGTAATAG | 4.39 ± 0.18
62 | GAAGTAGAAA | 0.9958 ± 0.0016
63 | GAAGTAGGGG | 0.977 ± 0.033
64 | GAAGTAGTTA | 1.006 ± 0.0082
65 | GAAGTCCATG | 1.01 ± 0.014
66 | GAAGTGAGCG | 1.028 ± 0.0063

Row | Sequence | switch fluorescence ratio
67 | GAAGTGTTGG | 1.004 ± 0.0049
68 | GAAGTTAGGG | 0.981 ± 0.032
69 | GAAGTTCGGC | 1.006 ± 0.0056
70 | GAAGTTGCGA | 0.9835 ± 0.0091
71 | GAAGTTTTGG | 0.996 ± 0.028
72 | GAAGTTTTGT | 1.016 ± 0.0088
73 | GAATACGGTT | 1.26 ± 0.44
74 | GAATAGCATA | 1.05 ± 0.018
75 | GAATAGGGGA | 1.02 ± 0.022
76 | GAATATACCG | 1.03 ± 0.042
77 | GAATATACTG | 1.05 ± 0.029
78 | GAATATATTT | 0.993 ± 0.019
79 | GAATCACAGC | 1.02 ± 0.033
80 | GAATCGGCGT | 0.991 ± 0.058
81 | GAATCGTAGG | 0.986 ± 0.016
82 | GAATCTAGTG | 1.019 ± 0.0039
83 | GAATCTTAGG | 1.03 ± 0.024
84 | GAATGATGGG | 0.987 ± 0.024
85 | GAATGCCGGG | 1.03 ± 0.054
